B1: TPR t1 (parent)
chain: GACCAAUCUGCCCUCAGAGCUCGAGAACAUCUUCGGAUGCAGAGGAGGCAGGCUUCGGUGGCGCGAUAGCGCCAACGUCCUCAACCUCCAAUGCAUCCCACCACAUGAUGAUGCCUGAAGAGCCUUGGUUUUUUG

Variants of: B1
Assay: polymerase ribozyme fitness, log enrichment relative to wild type (log ratio); higher = more active; in vitro selection for triplet polymerase activity
Method in brief: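 Fitness measures genotype enrichment against wild-type enrichment on a logarithmic scale, with inverse-variance-weighted averaging of replicates. The logarithm is base 2, and genotypes were kept only with ≥10 input reads and ≥1 read per output in Illumina sequencing. The sequenced libraries came from one triplicate in vitro selection round, including frozen incubation at −7 °C, of PCR-built, transcribed mutant libraries of each subunit of a heterodimeric triplet polymerase ribozyme.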

Variant	polymerase ribozyme fitness (log ratio)
C28U G77A U112G U125A	-3.35
C28U G44C C79U C82U U126C G127U U129G	-3.26
C31A C40G A46G G63A A111U	-6.15
U32G A43G C73U A105U G120C	-7.51
A29G U55G G63A U131C U133G	-2.37
C34A A46U	-3.37
A29G G48U G93C G110U C123U	-4.77
U32C U116C	-1.17
U30C C40U U55G	-4.05
A29U U96C	-1.87
C34A A105U A121U	-1.99
A29U G127A	-4.12
C28G G69U A91G U116G	-5.08
U32A G44U U55A	-5.23
C28G U96A	-3.94
C34A A50C	-3.5
U32C C64U	0.123
C28U G61A U112C U131A	0.223
A29G A46U G52U G57U U87G C115G	-4.9
A29U A43G U54C G63A G117C	-7.13
C28U G45C C76A C89G G120C	-5.73
A29U G61A	-1.45
U32G A41G C70U C89G C114U	-5.66
A29U C40U G60C U131A	-2.41

Variant	polymerase ribozyme fitness (log ratio)
U32C U55G C102A	-2.56
U33A A46C G69U	-0.918
A29U U30G G57U G63C C72U G120A	-7.09
A29U A83G C86U	-2.72
C31G A50G G60A C79A C124A	-7.23
A29U G61A C82G U116C U125A	-3.67
U32A G39U G45C C64G C114A	-6.51
U33G U133G	-6.24
A29G C34A C40A U106G G113U U126C	-7.15
A29U C124U	-0.47
U32C C73U C85U C98U	-4.19
U30G U32C	-6.32
U33G C56A C88U	-4.09
U32C G60U A66G C89G	-6.79
A29U G47U C62U	-4.34
U30C G42U G60A	-5.14
C28U A50U	-2.92
C34A A50C C53G U106A A111C	-5.87
A29G C115A	-0.195
A29G A41U	-1.6
A29G A41G	-1.22
A29U C62U	-1.3
A29U G69U U81C A100U C124A	0.115
C34A A37U A46U A74U G113C	-6.79

Variant	polymerase ribozyme fitness (log ratio)
U32G C56A C97A U109A	-6.23
C31A C72A C104G	-6.29
C28U A46U G48A A95G C124G	-3.31
A29G G61A G93A C102G G117C	-7.25
A29G C73U	-1.55
U32A A43G C88U G93A C114G	-5.05
A29U C56G C85A	-4.99
U33G G63C C124A	-4.77
U32C C79G U81C G113A	-2.36
C28U A43G G69U G113A	-1.82
U33A G48U U55C U109C A121G C124A G127C	-5.45
A29U G71U	-1.99
U32A A41U	-5.52
U32C C49U A95C U133A	-1.67
C28U G52A C70U	-3.7
C28U G45C	-3.26
C28U G45A	-2.04
U33G C82U A83C	-6.87
U33C G39U A111C A121C	-5.95
C31U C56A C73G U106A C124A	0.239
U32A G120C	-3.07
U33A A46C G69U U78G	-2.03
A29C U106A	-1.93
C31U G48A C73U U106G	-3.4

Variant	polymerase ribozyme fitness (log ratio)
U33A U129A	-6.13
C31A C56U	-4.45
A29G G71U G110A	-2.82
U33A U59A U112C G122C	-4.47
A29C C56A G71C U87A C98A C101U G110C	-6.81
A29G C88U	-1.2
A29G G60C U131A	-1.85
U32G C62U A105U U112G	-6.91
A29U C72U	-2.19
U32A C40G C56A A84U	-6.15
C28U U96G	-2.43
C31U C40U	-4.75
A29U A43U U78C U112A	-2.84
A29U C40U C49A A68G U106A	-4.25
A29G G42A G63A	-4.31
C31G G48U G65A C86G A100C G120C	-6.59
C28U A119G	-1.04
U33A G127C	-4.76
C28G G71A A83G U87G A119U	-5.64
A29G G69C G77C	-4.34
U32C G48U G69A	-3.8
A29G A46U G52U G57U C80U U87G C115G	-5.18
U33A C72A C76A	-6.92
C28G U106A G117C	-5.9

Variant	polymerase ribozyme fitness (log ratio)
U32G A103G C104A C123A	-6.74
A29U C56G A66U	-3
C31G C80A A105G G113A	-4.57
A29U G44A U59A A103C U112C	-5.66
U33G U96A G110C U116G	-6.31
C31A C115U	-7.47
A29C G36U A43U G44A G69U A121C	-2.34
A29U U112G U133C	-1.1
U33A C102G U112A	-6.38
U32C C56A C80U	-1.66
A29U G48A U92C C101U C114A	-5.72
U33G A111U A121G U125A	-6.73
C28U C56U C101U G120U	-2.65
C34A A83G A100U	-5.18
A29G U59G	-1.48
C34A C53U C114A U129C	-5.56
U32C G48C	-1.44
C28G G48U U92G C124A	-5.41
U33A G117U	-5.29
C28U C86A	-2.8
C28U C79U	-1.61
C31U A46C G47U C98A G120C	-7.6
C28G G107C U109G	-6.09
U32C C49A	-0.089

Variant	polymerase ribozyme fitness (log ratio)
U33A G69U	-0.74
A29U C123A	-1.43
U32C C62U C73U C85U C98U	-4.16
A29U C40A G52C G110U	-3.01
C28U C53A G93U	-4.15
C34A C62U	-2.79
C31G C53A G60A C94U U106A	-5.77
U32C C62A C82G G120C	-2.66
C28U C49A G113C	-3.97
U32C C124G	1.48
U32C G44U G60A	-0.98
C31A	-5.84
C31G	-7.22
C31U	-4.29
C28U A100C C102U U112C	-4.83
C34A A46U A68U G71C C124G	-7.38
A29U G47C C73G U109A	-0.853
A29U A66C	-2.83
C28U U112C U131A	-0.425
U32C C79U U106C	-0.788
C28U G127U	-2.17
A29G G42C G45C C49A U106A	-4.8
C34A C72U A100U	-4.44
U32C C73A C85G	-3.02

Variant	polymerase ribozyme fitness (log ratio)
A29G U132C	-0.924
U32C G120C	1.83
A29U G42C A66G A119U	-4.64
C28G G45U G52A G107C U109A C124A	-5.94
A29C G57U G120U	-2.96
A29C C70U A118G	-2.26
U32C G113A U126G U133C	-4.07
U33A C89A	-6.86
C28U G44U U59A C89G	-4.37
C28G U92G G117A A121G	-4.67
U30G C102G U112G	-7.15
A29U C72U C104U	-1.81
C34A A41G	-3.94
U33C G45A	-5.98
C31U C124U	-3.64
C31U A118U C123U	-4.23
A29G A37G U54G G69C	-7.29
C31U A43C	-6.22
C28U G61C U106A G113C	-5.31
U30C G63A	-2.6
A29U G52A G113A	-2.09
U32G A41G C70U C114U	-4.09
C28U G52A C73U	-2.19
